Several values for one entry are separate records, joined by “and”; a condition that tells them apart may be missing. Equal entries are not always repeated. Each block holds one binder with its values, some of them ahead of it.
Tests used:
[1] = molecular target: T1, MlaA with C-terminal 6xHis tag (E. coli, UniProt P76506 18-251); assay: affinity purification with mass spectrometry
T1 sequence (looked up): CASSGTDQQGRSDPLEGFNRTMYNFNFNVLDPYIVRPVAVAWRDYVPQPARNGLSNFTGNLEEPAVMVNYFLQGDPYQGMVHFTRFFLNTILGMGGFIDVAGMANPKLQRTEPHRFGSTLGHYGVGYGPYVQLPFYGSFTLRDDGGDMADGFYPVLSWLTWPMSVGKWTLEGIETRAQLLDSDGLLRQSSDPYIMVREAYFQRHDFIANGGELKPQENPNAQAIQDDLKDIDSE

cryo-EM structure = molecular target: the molecule itself; assay: cryo-EM structure
crystal structure = molecular target: the molecule itself; assay: crystal structure
negative-stain EM = molecular target: the molecule itself; assay: negative-stain EM
MlaE = molecular target: T2, MlaE (E. coli, UniProt P64606 1-260); assay: affinity purification with mass spectrometry
T2 sequence (looked up): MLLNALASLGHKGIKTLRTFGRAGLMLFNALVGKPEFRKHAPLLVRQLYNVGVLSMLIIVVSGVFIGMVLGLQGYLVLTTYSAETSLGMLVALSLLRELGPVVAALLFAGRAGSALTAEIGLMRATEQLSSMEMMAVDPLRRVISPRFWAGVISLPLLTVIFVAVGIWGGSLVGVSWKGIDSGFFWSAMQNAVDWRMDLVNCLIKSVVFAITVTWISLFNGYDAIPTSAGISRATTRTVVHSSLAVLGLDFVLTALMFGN

stoichiometry N [1]: ~1
B1: OmpF (natural protein, E. coli (endogenous in Rosetta 2 (DE3)), UniProt P02931 23-362, looked up)
chain: AEIYNKDGNKVDLYGKAVGLHYFSKGNGENSYGGNGDMTYARLGFKGETQINSDLTGYGQWEYNFQGNNSEGADAQTGNKTRLAFAGLKYADVGSFDYGRNYGVVYDALGYTDMLPEFGGDTAYSDDFFVGRVGGVATYRNSNFFGLVDGLNFAVQYLGKNERDTARRSNGDGVGGSISYEYEGFGIVGAYGAADRTNLQEAQPLGNGKKAEQWATGLKYDANNIYLAANYGETRNATPITNKFTNTSGFANKTQDVLLVAQYQFDFGLRPSIAYTKSKAKDVEGIGDVDLVNYFEVGATYYFNKNMSTYVDYIINQIDSDNKLGVGSDDTVAVGIVYQF

B2: PqiB periplasmic domain (residues 39-546) (domain or fragment, E. coli, UniProt P43671 39-546, looked up)
chain: SHQGPEVTLITANAEGIEGGKTTIKSRSVDVGVVESATLADDLTHVEIKARLNSGMEKLLHKDTVFWVVKPQIGREGISGLGTLLSGVYIELQPGAKGSKMDKYDLLDSPPLAPPDAKGIRVILDSKKAGQLSPGDPVLFRGYRVGSVETSTFDTQKRNISYQLFINAPYDRLVTNNVRFWKDSGIAVDLTSAGMRVEMGSLTTLLSGGVSFDVPEGLDLGQPVAPKTAFVLYDDQKSIQDSLYTDHIDYLMFFKDSVRGLQPGAPVEFRGIRLGTVSKVPFFAPNMRQTFNDDYRIPVLIRIEPERLKMQLGENADVVEHLGELLKRGLRGSLKTGNLVTGALYVDLDFYPNTPAITGIREFNGYQIIPTVSGGLAQIQQRLMEALDKINKLPLNPMIEQATSTLSESQRTMKNLQTTLDSMNKILASQSMQQLPTDMQSTLRELNRSMQGFQPGSAAYNKMVADMQRLDQVLRELQPVLKTLNEKSNALVFEAKDKKDPEPKRAKQ
stoichiometry N (cryo-EM structure): 6

B3: MlaD core MCE domain (residues 32-140) (domain or fragment, E. coli, UniProt P64604 32-140, looked up)
chain: TSIRTEPTYTLYATFDNIGGLKARSPVSIGGVVVGRVADITLDPKTYLPRVTLEIEQRYNHIPDTSSLSIRTSGLLGEQYLALNVGFEDPELGTAILKDGDTIQDTKSA
stoichiometry N (crystal structure): 7 and 14

B4: YebT, full length, C-terminal 6xHis tag (natural protein, E. coli, UniProt P76272 1-877, looked up)
chain: MSQETPASTTEAQIKNKRRISPFWLLPFIALMIASWLIWDSYQDRGNTVTIDFMSADGIVPGRTPVRYQGVEVGTVQDISLSDDLRKIEVKVSIKSDMKDALREETQFWLVTPKASLAGVSGLDALVGGNYIGMMPGKGKEQDHFVALDTQPKYRLDNGDLMIHLQAPDLGSLNSGSLVYFRKIPVGKVYDYAINPNKQGVVIDVLIERRFTDLVKKGSRFWNVSGVDANVSISGAKVKLESLAALVNGAIAFDSPEESKPAEAEDTFGLYEDLAHSQRGVIIKLELPSGAGLTADSTPLMYQGLEVGQLTKLDLNPGGKVTGEMTVDPSVVTLLRENTRIELRNPKLSLSDANLSALLTGKTFELVPGDGEPRKEFVVVPGEKALLHEPDVLTLTLTAPESYGIDAGQPLILHGVQVGQVIDRKLTSKGVTFTVAIEPQHRELVKGDSKFVVNSRVDVKVGLDGVEFLGASASEWINGGIRILPGDKGEMKASYPLYANLEKALENSLSDLPTTTVSLSAETLPDVQAGSVVLYRKFEVGEVITVRPRANAFDIDLHIKPEYRNLLTSNSVFWAEGGAKVQLNGSGLTVQASPLSRALKGAISFDNLSGASASQRKGDKRILYASETAARAVGGQITLHAFDAGKLAVGMPIRYLGIDIGQIQTLDLITARNEVQAKAVLYPEYVQTFARGGTRFSVVTPQISAAGVEHLDTILQPYINVEPGRGNPRRDFELQEATITDSRYLDGLSIIVEAPEAGSLGIGTPVLFRGLEVGTVTGMTLGTLSDRVMIAMRISKRYQHLVRNNSVFWLASGYSLDFGLTGGVVKTGTFNQFIRGGIAFATPPGTPLAPKAQEGKHFLLQESEPKEWREWGTALPK
stoichiometry N (negative-stain EM): 6

binding result (MlaE): binds
B5: His-tagged MlaD, co-expressed from the mlaFEDCB operon (natural protein, E. coli, UniProt P64604 1-183, looked up)
chain: MQTKKNEIWVGIFLLAALLAALFVCLKAANVTSIRTEPTYTLYATFDNIGGLKARSPVSIGGVVVGRVADITLDPKTYLPRVTLEIEQRYNHIPDTSSLSIRTSGLLGEQYLALNVGFEDPELGTAILKDGDTIQDTKSAMVLEDLIGQFLYGSKGDDNKNSGDAPAAAPGNNETTEPVGTTK
